Results published in doi:10.1101/2022.04.03.486873 (bioRxiv, 2022).
Positions count from the first letter of the chain named. Numbers in names are those of the source.

T1: UPF2L (120-1227) (UniProt Q9HAU5 120-1227)
T1 sequence: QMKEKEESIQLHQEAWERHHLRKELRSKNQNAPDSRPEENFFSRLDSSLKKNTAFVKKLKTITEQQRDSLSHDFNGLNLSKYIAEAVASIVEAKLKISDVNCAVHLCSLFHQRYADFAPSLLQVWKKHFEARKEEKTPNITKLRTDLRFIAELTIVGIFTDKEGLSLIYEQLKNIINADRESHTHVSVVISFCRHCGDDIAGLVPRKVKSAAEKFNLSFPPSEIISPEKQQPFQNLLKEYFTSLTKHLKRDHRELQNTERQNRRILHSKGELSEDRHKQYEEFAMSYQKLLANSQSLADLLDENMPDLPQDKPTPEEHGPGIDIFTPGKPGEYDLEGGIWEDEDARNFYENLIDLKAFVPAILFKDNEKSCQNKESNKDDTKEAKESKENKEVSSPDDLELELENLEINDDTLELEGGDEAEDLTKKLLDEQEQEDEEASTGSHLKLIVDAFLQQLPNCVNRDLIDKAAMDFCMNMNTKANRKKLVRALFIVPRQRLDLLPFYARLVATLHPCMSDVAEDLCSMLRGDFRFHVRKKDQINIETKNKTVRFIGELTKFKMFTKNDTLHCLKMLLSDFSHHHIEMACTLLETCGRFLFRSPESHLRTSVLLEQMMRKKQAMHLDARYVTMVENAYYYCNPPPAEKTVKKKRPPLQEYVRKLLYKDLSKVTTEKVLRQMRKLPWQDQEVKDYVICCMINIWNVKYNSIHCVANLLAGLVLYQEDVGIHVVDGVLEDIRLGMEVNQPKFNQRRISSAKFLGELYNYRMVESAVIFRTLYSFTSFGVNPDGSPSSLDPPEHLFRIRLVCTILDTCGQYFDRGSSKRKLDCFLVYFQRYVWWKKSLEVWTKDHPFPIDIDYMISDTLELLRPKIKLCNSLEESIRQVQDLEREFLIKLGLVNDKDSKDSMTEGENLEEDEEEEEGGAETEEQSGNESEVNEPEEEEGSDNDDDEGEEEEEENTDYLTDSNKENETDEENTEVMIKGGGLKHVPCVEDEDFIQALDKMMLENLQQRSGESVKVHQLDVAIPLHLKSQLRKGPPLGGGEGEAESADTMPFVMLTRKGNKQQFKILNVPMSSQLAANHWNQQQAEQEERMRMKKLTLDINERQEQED

B1: UPF3B-FL (residues 1-470) (natural protein)
chain: MKEEKEHRPKEKRVTLLTPAGATGSGGGTSGDSSKGEDKQDRNKEKKEALSKVVIRRLPPTLTKEQLQEHLQPMPEHDYFEFFSNDTSLYPHMYARAYINFKNQEDIILFRDRFDGYVFLDNKGQEYPAIVEFAPFQKAAKKKTKKRDTKVGTIDDDPEYRKFLESYATDNEKMTSTPETLLEEIEAKNRELIAKKTTPLLSFLKNKQRMREEKREERRRREIERKRQREEERRKWKEEEKRKRKDIEKLKKIDRIPERDKLKDEPKIKLLKKPEKGDEKELDKREKAKKLDKENLSDERASGQSCTLPKRSDSELKDEKPKRPEDESGRDYREREREYERDQERILRERERLKRQEEERRRQKERYEKEKTFKRKEEEMKKEKDTLRDKGKKAESTESIGSSEKTEKKEEVVKRDRIRNKDRPAMQLYQPGARSRNRLCPPDDSTKSGDSAAERKQESGISHRKEGGEE
B2: UPF3B-41-189 (domain or fragment)
chain: DRNKEKKEALSKVVIRRLPPTLTKEQLQEHLQPMPEHDYFEFFSNDTSLYPHMYARAYINFKNQEDIILFRDRFDGYVFLDNKGQEYPAIVEFAPFQKAAKKKTKKRDTKVGTIDDDPEYRKFLESYATDNEKMTSTPETLLEEIEAKN
B3: UPF3B-41-189 Y167A (domain or fragment)
chain: B2 chain with Y127A
B4: UPF3B-41-189 Y160A+Y167A (domain or fragment)
chain: B2 chain with Y120A, Y127A
B5: UPF3B-41-189 Y160D+Y167D (domain or fragment)
chain: B2 chain with Y120D, Y127D
B6: UPF3B-41-189 Y167D (domain or fragment)
chain: B2 chain with Y127D
B7: UPF3B-41-189 F163A (domain or fragment)
chain: B2 chain with F123A
B8: UPF3B-41-189 Y160A (domain or fragment)
chain: B2 chain with Y120A
B9: UPF3B-41-189 Y160D (domain or fragment)
chain: B2 chain with Y120D
B10: UPF3B-41-143 (domain or fragment)
chain: DRNKEKKEALSKVVIRRLPPTLTKEQLQEHLQPMPEHDYFEFFSNDTSLYPHMYARAYINFKNQEDIILFRDRFDGYVFLDNKGQEYPAIVEFAPFQKAAKKK
B11: UPF3A-58-206-Iso1 (domain or fragment)
chain: KPREEKRTALSKVVIRRLPPGLTKEQLEEQLRPLPAHDYFEFFAADLSLYPHLYSRAYINFRNPDDILLFRDRFDGYIFLDSKGLEYPAVVEFAPFQKIAKKKLRKKDAKTGSIEDDPEYKKFLETYCVEEEKTSANPETLLGEMEAKT
B12: Avi-UPF2-MIF4GIII (biotinylated) (domain or fragment)
chain: EKTVKKKRPPLQEYVRKLLYKDLSKVTTEKVLRQMRKLPWQDQEVKDYVICCMINIWNVKYNSIHCVANLLAGLVLYQEDVGIHVVDGVLEDIRLGMEVNQPKFNQRRISSAKFLGELYNYRMVESAVIFRTLYSFTSFGVNPDGSPSSLDPPEHLFRIRLVCTILDTCGQYFDRGSSKRKLDCFLVYFQRYVWWKKSLEVWTKDHPFPIDIDYMISDTLELLRPKIKLCNSLEESIRQVQDLEREFLIKLGLVNDKDSKDSMTEGENLEEDEEEEEGGAETEEQSGNESEVNE
modifications: biotin on the Avi tag (BirA)

target: T1, UPF2L (120-1227); test: native gel or EMSA

| binding result | Molecule |
| --- | --- |
| binds | B1 |

target: B12; test: SPR

| Kd [nM] | Molecule |
| --- | --- |
| 3.6 | B2 |
| 3.3 | B3 |
| ~130 | B4 |
| ~130 | B5 |
| 7.4 | B6 |
| 90 | B7 |
| 88 | B8 |
| 140 | B9 |
| 720 | B10 |
| 0.22 | B11 |

target: B1; test: SPR

| Kd [nM] | Molecule |
| --- | --- |
| 0.47 | B12 |

target: Avi-UPF2-MIF4GIII (biotinylated) (UniProt Q9HAU5); test: SPR

| Kd [nM] | Molecule |
| --- | --- |
| 0.048 | full-length UPF3A-WT (from UniProt Q9H1J1 1-476) (natural protein) |
